Publication PMC7610652 (Nature structural & molecular biology, 2021)

T1: RPC1, subunit of human RNA polymerase III (human, UniProt O14802 1-1390)
T1 sequence: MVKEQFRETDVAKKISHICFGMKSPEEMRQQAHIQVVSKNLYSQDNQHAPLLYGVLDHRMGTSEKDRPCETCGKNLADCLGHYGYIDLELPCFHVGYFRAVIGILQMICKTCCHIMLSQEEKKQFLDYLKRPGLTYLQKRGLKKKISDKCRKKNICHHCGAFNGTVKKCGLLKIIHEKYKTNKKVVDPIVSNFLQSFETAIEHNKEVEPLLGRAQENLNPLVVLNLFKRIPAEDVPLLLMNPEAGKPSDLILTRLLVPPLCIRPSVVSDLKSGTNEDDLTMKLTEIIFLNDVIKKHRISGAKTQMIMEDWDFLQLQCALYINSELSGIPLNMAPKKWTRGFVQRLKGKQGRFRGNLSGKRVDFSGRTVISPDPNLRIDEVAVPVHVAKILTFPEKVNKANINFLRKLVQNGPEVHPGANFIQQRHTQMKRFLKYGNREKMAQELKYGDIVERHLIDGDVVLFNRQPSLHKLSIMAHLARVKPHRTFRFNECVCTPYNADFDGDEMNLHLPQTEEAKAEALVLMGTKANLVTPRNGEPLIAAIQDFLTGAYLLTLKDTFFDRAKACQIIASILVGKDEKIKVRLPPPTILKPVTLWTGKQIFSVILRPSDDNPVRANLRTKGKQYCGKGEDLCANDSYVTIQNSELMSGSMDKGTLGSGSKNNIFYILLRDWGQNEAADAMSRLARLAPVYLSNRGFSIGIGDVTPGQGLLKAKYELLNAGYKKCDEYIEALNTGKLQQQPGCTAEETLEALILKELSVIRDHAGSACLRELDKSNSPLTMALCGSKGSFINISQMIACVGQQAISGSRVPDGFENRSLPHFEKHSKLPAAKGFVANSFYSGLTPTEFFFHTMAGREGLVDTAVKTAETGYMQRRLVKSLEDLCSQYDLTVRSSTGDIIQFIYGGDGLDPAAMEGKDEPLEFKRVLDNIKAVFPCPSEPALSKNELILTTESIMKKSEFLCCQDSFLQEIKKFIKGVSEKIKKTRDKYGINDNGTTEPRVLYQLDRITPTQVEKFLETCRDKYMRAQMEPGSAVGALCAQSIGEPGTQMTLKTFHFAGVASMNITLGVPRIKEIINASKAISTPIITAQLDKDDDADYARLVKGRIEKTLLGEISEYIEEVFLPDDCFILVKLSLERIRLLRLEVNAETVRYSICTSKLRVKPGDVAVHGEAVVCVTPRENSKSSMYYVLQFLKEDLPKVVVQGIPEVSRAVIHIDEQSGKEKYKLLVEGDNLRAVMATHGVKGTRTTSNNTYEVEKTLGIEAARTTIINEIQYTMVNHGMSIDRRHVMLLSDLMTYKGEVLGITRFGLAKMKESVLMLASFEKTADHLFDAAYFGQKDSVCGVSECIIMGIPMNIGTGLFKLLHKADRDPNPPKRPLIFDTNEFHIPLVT

T2: RPC3, subunit of the human RNA polymerase III heterotrimer (human, UniProt Q9BUI4 1-534)
T2 sequence: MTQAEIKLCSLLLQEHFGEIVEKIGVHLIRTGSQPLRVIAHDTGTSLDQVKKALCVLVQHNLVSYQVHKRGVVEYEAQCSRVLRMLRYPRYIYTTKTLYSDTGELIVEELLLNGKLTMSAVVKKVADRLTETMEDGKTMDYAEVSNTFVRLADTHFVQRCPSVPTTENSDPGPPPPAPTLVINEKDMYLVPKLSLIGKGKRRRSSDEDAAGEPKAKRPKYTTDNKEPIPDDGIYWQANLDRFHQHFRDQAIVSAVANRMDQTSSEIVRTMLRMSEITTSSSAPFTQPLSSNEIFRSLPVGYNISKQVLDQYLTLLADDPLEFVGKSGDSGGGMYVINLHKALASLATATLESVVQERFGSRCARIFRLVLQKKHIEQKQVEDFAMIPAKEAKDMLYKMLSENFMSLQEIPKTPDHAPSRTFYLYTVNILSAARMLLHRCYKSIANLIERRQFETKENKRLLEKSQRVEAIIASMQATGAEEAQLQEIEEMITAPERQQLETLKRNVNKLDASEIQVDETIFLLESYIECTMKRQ

T3: RPC5, subunit of the human RNA polymerase III heterodimer (human, UniProt Q9NVU0 1-708)
T3 sequence: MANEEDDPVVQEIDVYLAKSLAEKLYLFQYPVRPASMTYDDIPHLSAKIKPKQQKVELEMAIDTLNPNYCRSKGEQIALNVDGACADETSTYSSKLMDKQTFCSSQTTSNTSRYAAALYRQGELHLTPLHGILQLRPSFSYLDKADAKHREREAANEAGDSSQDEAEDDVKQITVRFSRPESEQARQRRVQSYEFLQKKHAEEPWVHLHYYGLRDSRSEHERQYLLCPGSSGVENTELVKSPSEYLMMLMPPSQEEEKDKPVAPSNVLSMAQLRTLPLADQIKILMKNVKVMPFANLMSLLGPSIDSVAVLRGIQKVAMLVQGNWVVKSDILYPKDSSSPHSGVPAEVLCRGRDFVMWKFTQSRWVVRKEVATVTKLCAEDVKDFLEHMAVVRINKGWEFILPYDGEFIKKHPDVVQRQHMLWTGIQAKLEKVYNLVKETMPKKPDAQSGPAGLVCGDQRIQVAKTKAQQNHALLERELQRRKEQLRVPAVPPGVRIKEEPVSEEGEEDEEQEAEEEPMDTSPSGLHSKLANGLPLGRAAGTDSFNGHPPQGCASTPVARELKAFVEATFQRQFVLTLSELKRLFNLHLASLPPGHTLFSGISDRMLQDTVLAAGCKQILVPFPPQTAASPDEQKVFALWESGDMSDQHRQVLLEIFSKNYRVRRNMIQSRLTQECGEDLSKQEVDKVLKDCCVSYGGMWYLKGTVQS

B1: RPC7α, subunit of the human RNA polymerase III heterotrimer (natural protein)
chain: MAGNKGRGRAAYTFNIEAVGFSKGEKLPDVVLKPPPLFPDTDYKPVPLKTGEGEEYMLALKQELRETMKRMPYFIETPEERQDIERYSKRYMKVYKEEWIPDWRRLPREMMPRNKCKKAGPKPKKAKDAGKGTPLTNTEDVLKKMEELEKRGDGEKSDEENEEKEGSKEKSKEGDDDDDDDAAEQEEYDEEEQEEENDYINSYFEDGDDFGADSDDNMDEATY
B2: RPC4, subunit of the human RNA polymerase III heterodimer (natural protein)
chain: MSEGNAAGEPSTPGGPRPLLTGARGLIGRRPAPPLTPGRLPSIRSRDLTLGGVKKKTFTPNIISRKIKEEPKEEVTVKKEKRERDRDRQREGHGRGRGRPEVIQSHSIFEQGPAEMMKKKGNWDKTVDVSDMGPSHIINIKKEKRETDEETKQILRMLEKDDFLDDPGLRNDTRNMPVQLPLAHSGWLFKEENDEPDVKPWLAGPKEEDMEVDIPAVKVKEEPRDEEEEAKMKAPPKAARKTPGLPKDVSVAELLRELSLTKEEELLFLQLPDTLPGQPPTQDIKPIKTEVQGEDGQVVLIKQEKDREAKLAENACTLADLTEGQVGKLLIRKSGRVQLLLGKVTLDVTMGTACSFLQELVSVGLGDSRTGEMTVLGHVKHKLVCSPDFESLLDHKHR

How the values were obtained:
Experiment in all cases: cryo-EM structure
[1] = molecular target: B1
[2] = molecular target: T1, RPC1, subunit of human RNA polymerase …
[3] = molecular target: T2, RPC3, subunit of the human RNA …
[4] = molecular target: T3, RPC5, subunit of the human RNA …
[5] = molecular target: B2

Row | binding result [1] | binding result [2] | binding result [3] | binding result [4] | binding result [5] | Binder
1 | binds | – | – | – | – | RPC8, stalk subunit of human RNA polymerase III (natural protein) MFVLVEMVDTVRIPPWQFERKLNDSIAEELNKKLANKVVYNVGLCICLFDITKLEDAYVFPGDGASHTKVHFRCVVFHPFLDEILIGKIKGCSPEGVHVSLGFFDDILIPPESLQQPAKFDEAEQVWVWEYETEEGAHDLYMDTGEEIRFRVVDESFVDTSPTGPSSADATTSSEELPKKEAPYTLVGSISEPGLGLLSWWTSN
2 | – | binds | binds | – | – | B1
3 | – | binds | – | binds | – | B2
4 | – | binds | binds | – | – | RPC6, subunit of the human RNA polymerase III heterotrimer (natural protein) MAEVKVKVQPPDADPVEIENRIIELCHQFPHGITDQVIQNEMPHIEAQQRAVAINRLLSMGQLDLLRSNTGLLYRIKDSQNAGKMKGSDNQEKLVYQIIEDAGNKGIWSRDIRYKSNLPLTEINKILKNLESKKLIKAVKSVAASKKKVYMLYNLQPDRSVTGGAWYSDQDFESEFVEVLNQQCFKFLQSKAETARESKQNPMIQRNSSFASSHEVWKYICELGISKVELSMEDIETILNTLIYDGKVEMTIIAAKEGTVGSVDGHMKLYRAVNPIIPPTGLVRAPCGLCPVFDDCHEGGEISPSNCIYMTEWLEF
5 | – | binds | – | binds | binds | RPC10, TFIIS-like subunit of human RNA polymerase III (natural protein) not shown
